Reference: patent publication US10500249B2, “Compositions and methods for preventing or treating diseases, conditions, or processes characterized by aberrant fibroblast proliferation and extracellular matrix deposition” (MOERAE MATRIX, INC., priority 2014, dated 2019)

Assays:
Assay in all cases: Kinase Profiling Assay
Assay type in all cases: biochemical
Details in all cases: 100 μM
ALK (h) = ALK (h) (Homo sapiens, UniProt Q9UM73)
How it was run: (§1)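 Each kinase activity was measured in duplicate. Phosphorylation of a positively charged substrate with radiolabeled phosphate from ATP was captured on a negatively charged filter, counted by scintillation and expressed relative to a 100% activity control. MK2 inhibitory peptides were screened for specificity across 266 human kinases.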

Abl (h) = Abl (h) (Homo sapiens, UniProt P00519)
How it was run: as §1

EphA2 (h) = molecular target: T1, EphA2 (h) (Homo sapiens, UniProt P29317)
T1 construct: purchased Millipore
How it was run: as §1

Fms(Y969C) (h) = Fms(Y969C) (h) (Homo sapiens, UniProt P07333, Y969C)
How it was run: as §1

MuSK (h) = molecular target: T2, MuSK (h) (Homo sapiens, UniProt O15146)
T2 construct: purchased Millipore
T2 sequence (O15146 24-869): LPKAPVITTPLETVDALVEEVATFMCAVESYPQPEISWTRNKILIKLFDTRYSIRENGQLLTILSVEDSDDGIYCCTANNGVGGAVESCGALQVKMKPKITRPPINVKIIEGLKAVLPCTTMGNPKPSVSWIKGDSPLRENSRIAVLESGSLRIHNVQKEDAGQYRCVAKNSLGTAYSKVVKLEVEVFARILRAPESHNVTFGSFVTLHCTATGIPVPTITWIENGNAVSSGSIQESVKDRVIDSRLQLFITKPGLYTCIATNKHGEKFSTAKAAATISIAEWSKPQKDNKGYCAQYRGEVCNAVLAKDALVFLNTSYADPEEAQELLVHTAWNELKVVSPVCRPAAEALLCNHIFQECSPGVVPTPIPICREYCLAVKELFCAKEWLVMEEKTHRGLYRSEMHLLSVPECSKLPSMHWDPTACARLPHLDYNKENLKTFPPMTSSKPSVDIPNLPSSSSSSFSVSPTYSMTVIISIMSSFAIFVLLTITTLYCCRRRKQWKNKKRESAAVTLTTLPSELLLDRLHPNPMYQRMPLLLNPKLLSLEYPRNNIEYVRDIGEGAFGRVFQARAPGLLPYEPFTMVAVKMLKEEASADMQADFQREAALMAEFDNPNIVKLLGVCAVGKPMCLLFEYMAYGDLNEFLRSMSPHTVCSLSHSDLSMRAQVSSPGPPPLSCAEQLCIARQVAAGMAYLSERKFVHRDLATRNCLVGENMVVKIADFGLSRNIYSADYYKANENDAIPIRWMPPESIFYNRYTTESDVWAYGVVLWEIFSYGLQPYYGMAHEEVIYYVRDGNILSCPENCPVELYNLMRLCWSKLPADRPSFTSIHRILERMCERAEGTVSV
How it was run: as §1

NEK3 (h) = molecular target: T3, NEK3 (h) (Homo sapiens, UniProt P51956)
T3 construct: purchased Millipore
T3 sequence (P51956 1-506): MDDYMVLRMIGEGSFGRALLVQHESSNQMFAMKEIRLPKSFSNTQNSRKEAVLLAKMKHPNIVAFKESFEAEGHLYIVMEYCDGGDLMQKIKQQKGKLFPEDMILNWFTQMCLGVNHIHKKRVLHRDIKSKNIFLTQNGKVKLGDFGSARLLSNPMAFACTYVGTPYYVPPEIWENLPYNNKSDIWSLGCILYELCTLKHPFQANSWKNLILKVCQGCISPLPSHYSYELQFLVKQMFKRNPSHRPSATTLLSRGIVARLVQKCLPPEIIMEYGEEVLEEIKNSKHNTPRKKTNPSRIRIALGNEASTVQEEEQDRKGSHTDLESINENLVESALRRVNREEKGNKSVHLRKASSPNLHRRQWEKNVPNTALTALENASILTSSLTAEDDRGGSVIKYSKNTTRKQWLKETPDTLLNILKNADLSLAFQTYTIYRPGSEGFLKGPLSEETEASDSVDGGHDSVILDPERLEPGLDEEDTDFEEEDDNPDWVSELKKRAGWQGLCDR
How it was run: as §1

PKCα (h) = molecular target: T4, PKCα (h) (Homo sapiens, UniProt P17252)
T4 construct: purchased Millipore
How it was run: as §1

PTK5 (h) = PTK5 (h) (Homo sapiens, UniProt P42685)
How it was run: as §1

ULK2 (h) = molecular target: T5, ULK2 (h) (Homo sapiens, UniProt Q8IYT8)
T5 sequence (Q8IYT8 1-1036): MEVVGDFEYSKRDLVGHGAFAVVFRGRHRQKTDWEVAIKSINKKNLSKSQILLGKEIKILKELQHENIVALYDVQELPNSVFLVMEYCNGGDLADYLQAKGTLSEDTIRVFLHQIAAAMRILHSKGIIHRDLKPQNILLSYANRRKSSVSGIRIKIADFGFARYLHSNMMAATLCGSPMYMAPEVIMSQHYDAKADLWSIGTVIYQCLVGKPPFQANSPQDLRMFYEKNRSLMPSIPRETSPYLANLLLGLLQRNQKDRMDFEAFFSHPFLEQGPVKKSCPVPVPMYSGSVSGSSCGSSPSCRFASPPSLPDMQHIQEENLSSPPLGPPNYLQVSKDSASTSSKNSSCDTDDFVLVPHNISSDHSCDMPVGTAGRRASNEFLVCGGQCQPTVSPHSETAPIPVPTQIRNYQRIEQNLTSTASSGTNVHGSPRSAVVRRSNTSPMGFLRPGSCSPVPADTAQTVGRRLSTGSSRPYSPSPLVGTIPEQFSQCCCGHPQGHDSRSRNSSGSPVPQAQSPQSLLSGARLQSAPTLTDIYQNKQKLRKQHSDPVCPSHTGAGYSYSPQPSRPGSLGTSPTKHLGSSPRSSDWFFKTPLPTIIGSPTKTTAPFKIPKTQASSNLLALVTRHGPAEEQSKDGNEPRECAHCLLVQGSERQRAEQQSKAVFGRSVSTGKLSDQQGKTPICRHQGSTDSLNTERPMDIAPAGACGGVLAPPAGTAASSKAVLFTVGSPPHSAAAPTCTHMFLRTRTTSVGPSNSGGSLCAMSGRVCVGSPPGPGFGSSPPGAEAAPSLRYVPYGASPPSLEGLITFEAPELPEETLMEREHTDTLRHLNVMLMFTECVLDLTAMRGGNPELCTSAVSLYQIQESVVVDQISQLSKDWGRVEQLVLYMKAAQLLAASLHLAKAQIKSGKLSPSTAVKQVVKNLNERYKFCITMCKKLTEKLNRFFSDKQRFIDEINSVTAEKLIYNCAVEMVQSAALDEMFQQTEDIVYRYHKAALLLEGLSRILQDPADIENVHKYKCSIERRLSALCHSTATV
How it was run: as §1

Sequence of Abl (h) (P00519 whole entry): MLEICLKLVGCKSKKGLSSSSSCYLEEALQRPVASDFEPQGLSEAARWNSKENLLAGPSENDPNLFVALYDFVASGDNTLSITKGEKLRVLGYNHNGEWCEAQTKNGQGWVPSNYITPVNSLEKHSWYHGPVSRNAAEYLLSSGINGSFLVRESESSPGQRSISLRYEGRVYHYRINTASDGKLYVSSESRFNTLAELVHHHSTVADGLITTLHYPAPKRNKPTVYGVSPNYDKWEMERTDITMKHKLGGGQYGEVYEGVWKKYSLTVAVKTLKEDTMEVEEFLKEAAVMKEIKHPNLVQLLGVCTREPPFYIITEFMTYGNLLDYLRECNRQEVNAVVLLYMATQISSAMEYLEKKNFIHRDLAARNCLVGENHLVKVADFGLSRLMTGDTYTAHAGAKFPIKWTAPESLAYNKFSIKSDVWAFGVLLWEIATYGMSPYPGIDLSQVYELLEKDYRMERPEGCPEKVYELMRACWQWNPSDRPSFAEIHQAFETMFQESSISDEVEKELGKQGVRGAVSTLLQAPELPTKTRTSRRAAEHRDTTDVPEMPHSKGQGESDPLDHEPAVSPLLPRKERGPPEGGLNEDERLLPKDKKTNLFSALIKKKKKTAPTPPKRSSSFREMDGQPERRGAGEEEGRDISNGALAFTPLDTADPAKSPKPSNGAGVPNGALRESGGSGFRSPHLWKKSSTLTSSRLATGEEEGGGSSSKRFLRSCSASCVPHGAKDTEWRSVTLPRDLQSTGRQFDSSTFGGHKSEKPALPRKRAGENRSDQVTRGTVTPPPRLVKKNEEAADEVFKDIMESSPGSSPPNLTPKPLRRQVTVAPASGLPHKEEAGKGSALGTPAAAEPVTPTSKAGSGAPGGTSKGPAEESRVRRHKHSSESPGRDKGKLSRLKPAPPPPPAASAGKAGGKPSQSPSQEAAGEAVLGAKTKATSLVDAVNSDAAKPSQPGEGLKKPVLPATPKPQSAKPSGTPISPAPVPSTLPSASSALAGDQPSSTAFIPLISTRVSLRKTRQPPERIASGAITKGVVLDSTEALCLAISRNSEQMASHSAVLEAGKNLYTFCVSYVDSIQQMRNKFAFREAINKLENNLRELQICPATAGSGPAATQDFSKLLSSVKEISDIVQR
Sequence of ALK (h) (Q9UM73 19-1620): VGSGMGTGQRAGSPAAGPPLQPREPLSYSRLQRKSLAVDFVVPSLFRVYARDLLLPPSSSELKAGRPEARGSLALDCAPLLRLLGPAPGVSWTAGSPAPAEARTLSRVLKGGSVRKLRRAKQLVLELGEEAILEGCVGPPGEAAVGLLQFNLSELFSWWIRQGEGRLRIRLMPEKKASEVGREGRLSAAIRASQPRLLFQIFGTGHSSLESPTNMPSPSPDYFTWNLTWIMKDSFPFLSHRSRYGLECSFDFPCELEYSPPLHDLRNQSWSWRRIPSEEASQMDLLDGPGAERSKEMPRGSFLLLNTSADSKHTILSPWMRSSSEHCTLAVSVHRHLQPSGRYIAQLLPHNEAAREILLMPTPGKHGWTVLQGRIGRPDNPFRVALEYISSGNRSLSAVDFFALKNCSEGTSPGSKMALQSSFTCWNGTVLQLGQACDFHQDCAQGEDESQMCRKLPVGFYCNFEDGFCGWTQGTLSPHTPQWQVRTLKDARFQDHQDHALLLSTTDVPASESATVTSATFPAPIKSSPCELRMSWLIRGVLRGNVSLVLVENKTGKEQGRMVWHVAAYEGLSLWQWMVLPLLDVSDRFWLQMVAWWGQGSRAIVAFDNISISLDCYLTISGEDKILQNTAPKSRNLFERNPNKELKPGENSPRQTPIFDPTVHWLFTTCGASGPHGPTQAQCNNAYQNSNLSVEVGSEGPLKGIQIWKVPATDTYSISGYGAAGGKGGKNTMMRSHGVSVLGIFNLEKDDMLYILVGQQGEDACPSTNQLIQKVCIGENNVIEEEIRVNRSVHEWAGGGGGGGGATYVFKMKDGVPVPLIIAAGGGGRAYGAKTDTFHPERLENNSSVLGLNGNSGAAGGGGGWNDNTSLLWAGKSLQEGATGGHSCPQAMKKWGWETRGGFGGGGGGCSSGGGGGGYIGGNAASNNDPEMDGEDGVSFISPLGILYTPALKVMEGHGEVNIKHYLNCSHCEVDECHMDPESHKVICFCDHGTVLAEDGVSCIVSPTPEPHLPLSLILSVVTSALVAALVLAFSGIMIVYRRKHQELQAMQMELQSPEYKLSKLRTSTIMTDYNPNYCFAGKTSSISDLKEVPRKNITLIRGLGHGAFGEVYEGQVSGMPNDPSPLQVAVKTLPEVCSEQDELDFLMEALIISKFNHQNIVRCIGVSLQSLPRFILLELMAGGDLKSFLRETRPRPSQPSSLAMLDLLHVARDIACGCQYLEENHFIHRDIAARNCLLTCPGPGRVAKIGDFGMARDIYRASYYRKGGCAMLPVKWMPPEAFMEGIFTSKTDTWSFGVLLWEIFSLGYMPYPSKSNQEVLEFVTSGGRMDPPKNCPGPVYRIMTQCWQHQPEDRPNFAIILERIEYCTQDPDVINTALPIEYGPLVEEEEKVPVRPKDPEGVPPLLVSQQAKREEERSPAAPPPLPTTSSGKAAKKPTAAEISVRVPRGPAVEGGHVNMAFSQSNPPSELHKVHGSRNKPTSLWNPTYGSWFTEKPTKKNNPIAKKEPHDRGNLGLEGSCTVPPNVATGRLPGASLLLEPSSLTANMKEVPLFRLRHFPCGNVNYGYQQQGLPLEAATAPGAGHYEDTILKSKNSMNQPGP
Sequence of PTK5 (h) (P42685 whole entry): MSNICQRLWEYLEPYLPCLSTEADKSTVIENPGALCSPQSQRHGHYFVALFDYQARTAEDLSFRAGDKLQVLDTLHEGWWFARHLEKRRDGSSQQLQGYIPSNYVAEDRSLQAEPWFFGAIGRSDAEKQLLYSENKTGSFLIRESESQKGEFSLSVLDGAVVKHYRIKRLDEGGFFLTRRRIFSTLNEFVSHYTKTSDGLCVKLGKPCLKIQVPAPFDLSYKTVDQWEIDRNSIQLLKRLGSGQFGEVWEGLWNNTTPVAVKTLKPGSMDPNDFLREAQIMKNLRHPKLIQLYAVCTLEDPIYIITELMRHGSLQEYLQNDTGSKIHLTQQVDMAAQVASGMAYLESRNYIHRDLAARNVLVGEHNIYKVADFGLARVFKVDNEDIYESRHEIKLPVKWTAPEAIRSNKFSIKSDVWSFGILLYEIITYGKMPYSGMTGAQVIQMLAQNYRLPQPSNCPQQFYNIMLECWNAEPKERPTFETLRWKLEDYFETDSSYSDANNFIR

| Sequence | % activity (ALK (h)) [%] | % activity (Abl (h)) [%] | % activity (EphA2 (h)) [%] | % activity (Fms(Y969C) (h)) [%] | % activity (MuSK (h)) [%] | % activity (NEK3 (h)) [%] | % activity (PKCα (h)) [%] | % activity (PTK5 (h)) [%] | % activity (ULK2 (h)) [%] |
| --- | --- | --- | --- | --- | --- | --- | --- | --- | --- |
| KAFAKLAARLYRKALARQLGVAA [MMI-0400] | 16 | 84 | 17 | 91 | 93 | 85 | 86 | 129 | 131 |
| YARAAARQARAKALNRQLGVA (Mammalian) [MMI-0200] | 95 |  | 95 | 88 |  | 100 | 100 | 108 | 132 |
| HRRIKAWLKKIKALARQLGVAA (Mammalian) [MMI-0500] | 12 | 16 |  |  | 27 | 20 | 3 | 96 | 124 |
| FAKLAARLYRKALARQLGVAA [MMI-0300] | 19 | 69 | 31 | 72 | 93 | 92 | 89 | 132 | 122 |
